One block for each substance: values may come before it.
Legend:
[1] = target: FadE1 (PA0506), fatty acyl-CoA dehydrogenase of Pseudomonas aeruginosa (Pseudomonas aeruginosa PAO1); assay: AUC; sedimentation at 50000 rpm, 20 °C; protein at 1 mg/mL in 20 mM Tris-HCl, 100 mM NaCl, 10 mM imidazole (pH 7.5); absorbance and interference scans; analysis with SEDFIT; His6 tags removed
[2] = system: T1, CCCCCCCC(=O)SCCNC(=O)CCNC(=O)[C@H](O)C(C)(C)COP(=O)(O)OP(=O)(O)OC[C@H]1O[C@@H](n2cnc3c(N)ncnc32)[C@H](O)[C@@H]1OP(=O)(O)O; assay: purified protein; assay type: biochemical, Pseudomonas aeruginosa; conditions: FAD sandwiched between catalytic Glu441 and the FAD
T1 construct: full-length ORF, His6 tag removed by TEV

[3] = system: T2, CCCCCCCCCCCCCCCC(=O)SCCNC(=O)CCNC(=O)[C@H](O)C(C)(C)COP(=O)(O)OP(=O)(O)OC[C@H]1O[C@@H](n2cnc3c(N)ncnc32)[C@H](O)[C@@H]1OP(=O)(O)O; assay: Michaelis-Menten kinetics of purified enzyme (KM); assay type: biochemical, Pseudomonas aeruginosa; conditions: FAD
T2 construct: full-length ORF, His6 tag removed by TEV

[4] = target: FadE2 (PA0508), fatty acyl-CoA dehydrogenase of Pseudomonas aeruginosa (Pseudomonas aeruginosa PAO1); assay: AUC; sedimentation at 50000 rpm, 20 °C; protein at 1 mg/mL in 20 mM Tris-HCl, 100 mM NaCl, 10 mM imidazole (pH 7.5); absorbance and interference scans; analysis with SEDFIT; His6 tags removed

stoichiometry N [1]: 2
Substance: FadE1 (PA0506), fatty acyl-CoA dehydrogenase of Pseudomonas aeruginosa (enzyme)

Substance: FadE1 (Pseudomonas aeruginosa PAO1)
Km [2]: 12.29 ± 1.43 µM
Km [3]: 16.36 ± 2.09 µM

stoichiometry N [4]: 2
Substance: FadE2 (PA0508), fatty acyl-CoA dehydrogenase of Pseudomonas aeruginosa (enzyme)

Reference: publication PMC11890623, “Pseudomonas aeruginosa acyl-CoA dehydrogenases and structure-guided inversion of their substrate specificity” (Nature Communications, 2025)
